Results taken from patent publication US20140087995A1 (published 2014).
Substitutions are numbered along the chain they refer to. Like-named read-outs stand apart in the source and are kept apart here. Blank lines part the entries; values can stand above or below the binder they belong to. Numbered stars: 1 amine (or outer) side, 2 acyl side, 3 side chain; on linkers, the order of the positions; unused ones are H or OH. Bridge positions count the residues as written; N and C are the ends. * marks the point of attachment. C20 diacid = O=C(O)CCCCCCCCCCCCCCCCCCC(=O)*; γGlu = O=C(O)[C@H](CCC(=O)[*:2])N[*:1]

Columns and labels:
Assay in all cases: cell-based or functional assay
[1] = molecular target: T1, human calcitonin receptor (human, UniProt P30988 25-474)
T1 sequence (looked up): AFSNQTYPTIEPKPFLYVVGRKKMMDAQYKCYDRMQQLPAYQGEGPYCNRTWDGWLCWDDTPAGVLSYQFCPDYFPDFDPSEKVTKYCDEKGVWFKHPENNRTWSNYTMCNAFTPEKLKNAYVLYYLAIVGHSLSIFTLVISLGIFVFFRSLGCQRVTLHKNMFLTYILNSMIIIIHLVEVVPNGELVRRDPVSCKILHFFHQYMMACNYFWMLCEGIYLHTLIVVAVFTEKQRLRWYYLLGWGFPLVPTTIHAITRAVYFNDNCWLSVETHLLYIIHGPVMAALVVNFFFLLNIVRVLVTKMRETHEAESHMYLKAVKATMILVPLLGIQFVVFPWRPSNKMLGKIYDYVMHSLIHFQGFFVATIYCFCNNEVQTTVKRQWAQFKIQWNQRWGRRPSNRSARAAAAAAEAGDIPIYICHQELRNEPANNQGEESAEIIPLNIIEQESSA

[2] = molecular target: T2, human amylin receptor (amylin 3(a) receptor: human calcitonin receptor plus RAMP-3) (human, UniProt P30988 25-474; O60896 24-148, limits assumed)
T2 sequence (looked up) 1: T1 sequence (looked up)
T2 sequence (looked up) 2: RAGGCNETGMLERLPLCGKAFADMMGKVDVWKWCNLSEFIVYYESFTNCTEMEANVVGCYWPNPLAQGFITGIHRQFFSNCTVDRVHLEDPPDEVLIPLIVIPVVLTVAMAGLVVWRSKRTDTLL

[3] = molecular target: T3, human calcitonin receptor (human, UniProt P30988 25-474); remark: listed apart in the source
T3 sequence (looked up): T1 sequence (looked up)

[4] = molecular target: T4, human amylin receptor (amylin 3(a) receptor: human calcitonin receptor with RAMP-3) (human, UniProt P30988 25-474; O60896 24-148)
T4 sequence (looked up) 1: T1 sequence (looked up)
T4 sequence (looked up) 2: T2 sequence (looked up) 2

hCTR funct. EC50 [1]: 1680 pM | hAmylin-R funct. EC50 [2]: 134 pM
B5: N^α1-[(4S)-4-carboxy-4-(19-carboxynonadecanoylamino)butanoyl]-[His14,Arg17,Pro21,Pro27,Glu35]-h-amylin (peptide)
peptide: {C20 diacid-γGlu}-KCNTATCATQRLAHFLRHSSPNFGAIPSSTNVGSETY-NH2
modifications: disulfide 2-7
SMILES: CC[C@H](C)[C@H](NC(=O)[C@H](C)NC(=O)CNC(=O)[C@H](Cc1ccccc1)NC(=O)[C@H](CC(N)=O)NC(=O)[C@@H]1CCCN1C(=O)[C@H](CO)NC(=O)[C@H](CO)NC(=O)[C@H](Cc1c[nH]cn1)NC(=O)[C@H](CCCNC(=N)N)NC(=O)[C@H](CC(C)C)NC(=O)[C@H](Cc1ccccc1)NC(=O)[C@H](Cc1c[nH]cn1)NC(=O)[C@H](C)NC(=O)[C@H](CC(C)C)NC(=O)[C@H](CCCNC(=N)N)NC(=O)[C@H](CCC(N)=O)NC(=O)[C@@H](NC(=O)[C@H](C)NC(=O)[C@@H]1CSSC[C@H](NC(=O)[C@H](CCCCN)NC(=O)CC[C@H](NC(=O)CCCCCCCCCCCCCCCCCCC(=O)O)C(=O)O)C(=O)N[C@@H](CC(N)=O)C(=O)N[C@@H]([C@@H](C)O)C(=O)N[C@@H](C)C(=O)N[C@@H]([C@@H](C)O)C(=O)N1)[C@@H](C)O)C(=O)N1CCC[C@H]1C(=O)N[C@@H](CO)C(=O)N[C@@H](CO)C(=O)N[C@H](C(=O)N[C@@H](CC(N)=O)C(=O)N[C@H](C(=O)NCC(=O)N[C@@H](CO)C(=O)N[C@@H](CCC(=O)O)C(=O)N[C@H](C(=O)N[C@@H](Cc1ccc(O)cc1)C(N)=O)[C@@H](C)O)C(C)C)[C@@H](C)O
notes: also called compound 30

Ratio hCT/hAmylin funct. (hCTR EC50 against hAmylin-R EC50) [1]: 6.4 | hCTR funct. EC50 [1]: 717 pM | hAmylin-R funct. EC50 [2]: 112 pM
B6: N^α1-[(4S)-4-carboxy-4-(19-carboxynonadecanoylamino)butanoyl]-[Glu14,Arg17,Pro21,Pro27,Pro31]-h-amylin (peptide)
peptide: {C20 diacid-γGlu}-KCNTATCATQRLAEFLRHSSPNFGAIPSSTPVGSNTY-NH2
modifications: disulfide 2-7
SMILES: CC[C@H](C)[C@H](NC(=O)[C@H](C)NC(=O)CNC(=O)[C@H](Cc1ccccc1)NC(=O)[C@H](CC(N)=O)NC(=O)[C@@H]1CCCN1C(=O)[C@H](CO)NC(=O)[C@H](CO)NC(=O)[C@H](Cc1c[nH]cn1)NC(=O)[C@H](CCCNC(=N)N)NC(=O)[C@H](CC(C)C)NC(=O)[C@H](Cc1ccccc1)NC(=O)[C@H](CCC(=O)O)NC(=O)[C@H](C)NC(=O)[C@H](CC(C)C)NC(=O)[C@H](CCCNC(=N)N)NC(=O)[C@H](CCC(N)=O)NC(=O)[C@@H](NC(=O)[C@H](C)NC(=O)[C@@H]1CSSC[C@H](NC(=O)[C@H](CCCCN)NC(=O)CC[C@H](NC(=O)CCCCCCCCCCCCCCCCCCC(=O)O)C(=O)O)C(=O)N[C@@H](CC(N)=O)C(=O)N[C@@H]([C@@H](C)O)C(=O)N[C@@H](C)C(=O)N[C@@H]([C@@H](C)O)C(=O)N1)[C@@H](C)O)C(=O)N1CCC[C@H]1C(=O)N[C@@H](CO)C(=O)N[C@@H](CO)C(=O)N[C@H](C(=O)N1CCC[C@H]1C(=O)N[C@H](C(=O)NCC(=O)N[C@@H](CO)C(=O)N[C@@H](CC(N)=O)C(=O)N[C@H](C(=O)N[C@@H](Cc1ccc(O)cc1)C(N)=O)[C@@H](C)O)C(C)C)[C@@H](C)O
notes: also called compound 31

Ratio hCT/hAmylin funct. [3]: 8.9 | hCTR funct. EC50 [3]: 3430 pM | hAmylin-R funct. EC50 [4]: 386 pM
B9: N^α1 N^α1-[(4S)-4-carboxy-4-[[(4S)-4-carboxy-4-(19-carboxynonadecanoylamino)butanoyl]amino]butanoyl]-[Glu14,Arg17,Pro21,Pro27]-h-amylin (peptide)
peptide: {C20 diacid-γGlu-γGlu}-KCNTATCATQRLAEFLRHSSPNFGAIPSSTNVGSNTY-NH2
modifications: disulfide 2-7
SMILES: CC[C@H](C)[C@H](NC(=O)[C@H](C)NC(=O)CNC(=O)[C@H](Cc1ccccc1)NC(=O)[C@H](CC(N)=O)NC(=O)[C@@H]1CCCN1C(=O)[C@H](CO)NC(=O)[C@H](CO)NC(=O)[C@H](Cc1c[nH]cn1)NC(=O)[C@H](CCCNC(=N)N)NC(=O)[C@H](CC(C)C)NC(=O)[C@H](Cc1ccccc1)NC(=O)[C@H](CCC(=O)O)NC(=O)[C@H](C)NC(=O)[C@H](CC(C)C)NC(=O)[C@H](CCCNC(=N)N)NC(=O)[C@H](CCC(N)=O)NC(=O)[C@@H](NC(=O)[C@H](C)NC(=O)[C@@H]1CSSC[C@H](NC(=O)[C@H](CCCCN)NC(=O)CC[C@H](NC(=O)CC[C@H](NC(=O)CCCCCCCCCCCCCCCCCCC(=O)O)C(=O)O)C(=O)O)C(=O)N[C@@H](CC(N)=O)C(=O)N[C@@H]([C@@H](C)O)C(=O)N[C@@H](C)C(=O)N[C@@H]([C@@H](C)O)C(=O)N1)[C@@H](C)O)C(=O)N1CCC[C@H]1C(=O)N[C@@H](CO)C(=O)N[C@@H](CO)C(=O)N[C@H](C(=O)N[C@@H](CC(N)=O)C(=O)N[C@H](C(=O)NCC(=O)N[C@@H](CO)C(=O)N[C@@H](CC(N)=O)C(=O)N[C@H](C(=O)N[C@@H](Cc1ccc(O)cc1)C(N)=O)[C@@H](C)O)C(C)C)[C@@H](C)O
notes: also called compound 15

The next lines start with the binder.

B1: N^α1-[(4S)-4-carboxy-4-(19-carboxynonadecanoylamino)butanoyl]-[Arg17,Pro21,Pro27,Arg34]-h-amylin (peptide)
peptide: KCNTATCATQRLANFLRHSSPNFGAIPSSTNVGRNTY
modifications: C20 diacid-gGlu on the alpha amino group of the N-terminal residue; Cys2-Cys7 disulfide and C-terminal amide as in human amylin
notes: also called compound 39
Ratio hCT/hAmylin funct. (hCTR EC50 against hAmylin-R EC50) [1]: 11.6 | hCTR funct. EC50 [1]: 2520 pM | hAmylin-R funct. EC50 [2]: 217 pM

B2: N^α1-[2-[2-[2-[[2-[2-[2-[[(4S)-4-carboxy-4-(19-carboxynonadecanoylamino)butanoyl]amino]ethoxy]ethoxy]acetyl]amino]ethoxy]ethoxy]acetyl]-[Glu14,Arg17,Pro21,Pro27 … (peptide)
peptide: B1 peptide with N14E, R34S
modifications: C20 diacid-gGlu-2xOEG on the alpha amino group of the N-terminal residue; disulfide bridge Cys2-Cys7; C-terminal amide
notes: also called compound 19
Ratio hCT/hAmylin funct. [3]: 17.4 | hCTR funct. EC50 [3]: 5320 pM | hAmylin-R funct. EC50 [4]: 307 pM

B3: N^α1-[(4S)-4-carboxy-4-(19-carboxynonadecanoylamino)butanoyl]-[Arg17,Pro21,Pro27,His34]-h-amylin (peptide)
peptide: B1 peptide with R34H
modifications: C20 diacid-gGlu on the alpha amino group of the N-terminal residue; Cys2-Cys7 disulfide and C-terminal amide as in human amylin
notes: also called compound 40
Ratio hCT/hAmylin funct. (hCTR EC50 against hAmylin-R EC50) [1]: 16.4 | hCTR funct. EC50 [1]: 2680 pM | hAmylin-R funct. EC50 [2]: 164 pM

B4: N^α1-[(4S)-4-carboxy-4-(19-carboxynonadecanoylamino)butanoyl]-[Arg17,Pro21,Pro27,Glu35]-h-amylin (peptide)
peptide: B1 peptide with R34S, N35E
modifications: C20 diacid-gGlu on the alpha amino group of the N-terminal residue; Cys2-Cys7 disulfide and C-terminal amide as in human amylin
notes: also called compound 23
Ratio hCT/hAmylin funct. (hCTR EC50 against hAmylin-R EC50) [1]: 8.9 | hCTR funct. EC50 [1]: 3020 pM | hAmylin-R funct. EC50 [2]: 340 pM

B7: N^α1-[(4S)-4-carboxy-4-(19-carboxynonadecanoylamino)butanoyl]-[Arg17,Pro21,Pro27,Pro31,Glu35]-h-amylin (peptide)
peptide: {C20 diacid-γGlu}-KCNTATCATQRLANFLRHSSPNFGAIPSSTPVGSETY-NH2
modifications: disulfide 2-7
SMILES: CC[C@H](C)[C@H](NC(=O)[C@H](C)NC(=O)CNC(=O)[C@H](Cc1ccccc1)NC(=O)[C@H](CC(N)=O)NC(=O)[C@@H]1CCCN1C(=O)[C@H](CO)NC(=O)[C@H](CO)NC(=O)[C@H](Cc1c[nH]cn1)NC(=O)[C@H](CCCNC(=N)N)NC(=O)[C@H](CC(C)C)NC(=O)[C@H](Cc1ccccc1)NC(=O)[C@H](CC(N)=O)NC(=O)[C@H](C)NC(=O)[C@H](CC(C)C)NC(=O)[C@H](CCCNC(=N)N)NC(=O)[C@H](CCC(N)=O)NC(=O)[C@@H](NC(=O)[C@H](C)NC(=O)[C@@H]1CSSC[C@H](NC(=O)[C@H](CCCCN)NC(=O)CC[C@H](NC(=O)CCCCCCCCCCCCCCCCCCC(=O)O)C(=O)O)C(=O)N[C@@H](CC(N)=O)C(=O)N[C@@H]([C@@H](C)O)C(=O)N[C@@H](C)C(=O)N[C@@H]([C@@H](C)O)C(=O)N1)[C@@H](C)O)C(=O)N1CCC[C@H]1C(=O)N[C@@H](CO)C(=O)N[C@@H](CO)C(=O)N[C@H](C(=O)N1CCC[C@H]1C(=O)N[C@H](C(=O)NCC(=O)N[C@@H](CO)C(=O)N[C@@H](CCC(=O)O)C(=O)N[C@H](C(=O)N[C@@H](Cc1ccc(O)cc1)C(N)=O)[C@@H](C)O)C(C)C)[C@@H](C)O
notes: also called compound 28
Ratio hCT/hAmylin funct. (hCTR EC50 against hAmylin-R EC50) [1]: 9.2 | hCTR funct. EC50 [1]: 2030 pM | hAmylin-R funct. EC50 [2]: 220 pM

B8: N^α1-[(4S)-4-carboxy-4-(19-carboxynonadecanoylamino)butanoyl]-[Glu14,Arg17,Pro21,Pro27,Arg35]-h-amylin (peptide)
peptide: {C20 diacid-γGlu}-KCNTATCATQRLAEFLRHSSPNFGAIPSSTNVGSRTY-NH2
modifications: disulfide 2-7
SMILES: CC[C@H](C)[C@H](NC(=O)[C@H](C)NC(=O)CNC(=O)[C@H](Cc1ccccc1)NC(=O)[C@H](CC(N)=O)NC(=O)[C@@H]1CCCN1C(=O)[C@H](CO)NC(=O)[C@H](CO)NC(=O)[C@H](Cc1c[nH]cn1)NC(=O)[C@H](CCCNC(=N)N)NC(=O)[C@H](CC(C)C)NC(=O)[C@H](Cc1ccccc1)NC(=O)[C@H](CCC(=O)O)NC(=O)[C@H](C)NC(=O)[C@H](CC(C)C)NC(=O)[C@H](CCCNC(=N)N)NC(=O)[C@H](CCC(N)=O)NC(=O)[C@@H](NC(=O)[C@H](C)NC(=O)[C@@H]1CSSC[C@H](NC(=O)[C@H](CCCCN)NC(=O)CC[C@H](NC(=O)CCCCCCCCCCCCCCCCCCC(=O)O)C(=O)O)C(=O)N[C@@H](CC(N)=O)C(=O)N[C@@H]([C@@H](C)O)C(=O)N[C@@H](C)C(=O)N[C@@H]([C@@H](C)O)C(=O)N1)[C@@H](C)O)C(=O)N1CCC[C@H]1C(=O)N[C@@H](CO)C(=O)N[C@@H](CO)C(=O)N[C@H](C(=O)N[C@@H](CC(N)=O)C(=O)N[C@H](C(=O)NCC(=O)N[C@@H](CO)C(=O)N[C@@H](CCCNC(=N)N)C(=O)N[C@H](C(=O)N[C@@H](Cc1ccc(O)cc1)C(N)=O)[C@@H](C)O)C(C)C)[C@@H](C)O
notes: also called compound 16
Ratio hCT/hAmylin funct. (hCTR EC50 against hAmylin-R EC50) [1]: 6.1 | hCTR funct. EC50 [1]: 2220 pM | hAmylin-R funct. EC50 [2]: 363 pM
